# Data published in the domain aggregation screens of Martell et al. (2025).
# Assay: soluble fraction after stress (log2 fold change); higher = more stays soluble; pooled small domains, quantitative proteomics
# Settings: stress: pH 4
# In short: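 Aggregation propensity is estimated from the fold change in each domain's soluble amount after acid stress. Pooled small-domain libraries were stressed at pH 4, and higher log2 values mean more stayed soluble.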
row,Sequence,soluble fraction (log2)
1,HMEYKKKIGELLIDGNKKLKAANIDTYILDTQLLLGKVLGKDKLYLITNKDEEVSNFKEREFYSLIEKRI,-0.304
2,HMPIEQVEVPNLTNMTREEAESTLTSLNLKAQVHEEANEADEGKVFKQGTNTGEMVDEGSTIEIWVS,-0.555
3,HMPVQPMDPSIEHISALTGKQFQAFPGQDHRAHMTAHLNFMSTNIVRNNPAVMGAIQKNILEHISLMAQEQ,-0.0918
4,HMRESDQSTVELSLERTIQEALMVNPRTSSVEEFSFEWGTGRVKVSFIVYSVDGEPFTVDSIIE,-1.19
5,HMIESVMVGIKELLGDTIDQKYEKYIRLGGIPSDEVDEFNSVFSAYEKVNGNHNGKKKYDYVMNNLPIIPV,-1.54
6,HMTLPQEPTVLPRPLRVGDTVHIRTLDKDAEVLALPDARGMVAVRAGIINTKVKLTDLTLVEEK,≥ 0.43
7,HMAVFRVGDKVKSMEGMIGEVRGINGRLIQVATPYGLRDYYPHQITKVENPLAAAPAPLNEEA,0.0157
8,HMLSPPWYEYHRKVQAMFGRDPEVHIKDLDDLGDGKFSYMILVYNKEKAEAIKAILPQKVEMGNVTIETAI,≥ 0.43
9,HMDFRVGVWVELVQQRRSVRTQLTWVSPQHTLFLFTAKDGSTQSMTLRMRDKLLAEGNLRIVAPPSR,0.22
10,HMVAFYATPKERGIYDDAETYREGDIVSIADGSRWIYVNPTATAGNDPADGSVYWERMSGAATGP,-0.127
11,HMPSLSREREAAILEMIERRPSTAEDVASGLGLAVNEVIKLLDGTALRGSVETFQSGEEIYYTRKR,-0.294
12,HMPTFAEKLHEVRKARDFTQDQLAKEMNVSRQTISHWENGRAVPDIDTIKHLSQVLDYNFLV,-0.171
13,HMSIAEMSGARKSAILLLALDEDSAAEIFKYLSAGEVQEISMEMAKLNQVSHDDMKAVLEAFHKETEEFV,-1.02
14,HMLTDAAAVKRSVRNLVQYGFYEKPFHPEIGSGVRDLLFENMTPFVANNLSKQIEEIITNYEPRA,-0.126
15,HMVEPDELTEREREVLQFVARGLSNKEIGAALALSPHTIKAHLRSILDKLHLRSRAEAAAWAVRSGLS,-0.162
16,HMQEEELYPRLEEVINQHRGKGEDLIMVLHKAQNLFGYLPRRAQEMVAEGLNVSLNEVYGVITFYNFFST,-0.342
17,HMQSTVSTHQKTLALDTAQSGIPVFPVSSTHKRPLTDHGYKDATADADAVRKIWQQFPSAFV,0.22
18,HMYMKMNDRIRSRRKELKMTQSVLAKLVGVNRVTITGWESGDYKPGGENLQALAAALEKTPQWLLDGKD,≥ 0.43
19,HMIEFYTMQDMFYFKLTGDNTSRERREALGKILGIGYGNATQMVSRLNNYGISKEEFSKAIEEIEKQLEA,-1.36
20,HMFDLDIEQIANDLKHGVMPNLYGLSLQDALYLLEAKGIRVKVAGSGSVVNQSIKTGAYVGSGSVLKLEL,-0.833
21,HMTSPLQIHPNPATKHIELGLESPEVVLIKDINGKTVYQELVAPNQYIDIEHLKNGIYFIESKNKFGKLIK,0.29
22,HMFDTVFIVRKTSDKPLDGLRTYLNSIGDSLVIGEDDEAFKVHVHTNHPGKVLEEAITYGALQTVKIENMR,-0.585
23,HMQDTYLYPVQHNGKVRLQVELPAKGLPEDLVRLALAHPKVVEWLNGRIPTKTIAVPGRIINMVLPNQ,0.18
24,HMDGKPSLIISNGQINYKEMVKLRYSLEDLLFQLRQNSIKSIEEVEYAFLESNGKLSIFPYNFL,-1.65
25,HMKSERHALILSLIEKKNVETQEDLAELLKERGVAVTQATVSRDIKELRLIKVLSETGGYKYATVDKAE,0.109
26,HMDAEETLGARLRRLRQARGLSLAGLAQAAGLSKPSIWAWENGTTAPRRTSLLALARALDVPEQQLTGV,-0.173
27,HMVKVEVKPNVLQWVIKRMDNFDRLKDQFPNIDKWINQESQPTLKQLEKLAKMTAVPLGYFFLPNPPEEK,-0.507
28,HMGAATQADIARVQELLNRLGYDAGSPDGLMGPRTRDAILEYQLTEGLETTGTVTRETLASLEARL,-0.939

row,Sequence,soluble fraction (log2)
1,HMNSSTYIVTFKVDGEEDIVETYQWGDRIIVPEVEAKDDYVFIGWDAQIPEFMPERNLEFTAI,-1.67
2,HMYPFSEETLKEKIREYLKTNRSINRRVLEREFYIRKQTALNWLNRLVDSGFLIKEGVRNSPVYFLAE,0.26
3,HMDTNVKLLSPKQADFFASKLANNQNFSSKFAKVGEDMQPFIERISSELQQDISQVIVYMPYLLESGFKQ,-0.126
4,HMNDPFVILGVSKDASQSEILEAYKQKRAYYQERVFDEGDEGAQAARMLTQLDDAYQQAMELSHES,0.17
5,HMSSRSLTYSDFIERVDAGQVDAVTLDGERIVIRAKDGNTYVAIKPQGEDVTGSLTRDLIAKGVDVEAEPQ,0.0187
6,HMAKIEVENLEETILENLKANNGFMPYNDKTSPEEIYEVFHVSKKHFKNSLGGLMKKGLIFQNEKGTKL,-0.444
7,HMKRLPAQMGGGDGVLRVPGLNNFVYVTIADKTLPAFNNRVPPKKGLRIWVGYSPEEPNLFQVLSTRTD,0.0233
8,HMTFKDIMENYTISRIENTINSAVVFLDEINAYITIDKTQLPSNLRYDTDSKIMASQIPDDAKIKYFMIYW,-1.61
9,HMTVPTEVALELMHATALEDNEQRILYIASFKEKHREHLHATIEVDGQEVTLARYADLVATGAYL,-2.15
10,HMHTSEDLEKLLTRYFQSHESINRQQFEQLSGFTRTTASRRLKALVEAGKLKNIGLHHFPVYKPTEGNF,0.134
11,HMSEGEMSQWIIAQAKQQGGGFQPDAARLLGSYVGNNTLRARQEIDKLLTYVGPSRVVTPEDVVLLTA,-0.0309
12,HMGAAIEYGDRGNTVLQAQRLLIARGYMAGSADGIYGRQMEQAVKRFQKEQGLPESGVVDRRTLQVLIRSR,0.04
13,HMYPNEFPRKVMSVFESSGLEMFRTIEMLLAIPEYETPLPYGSGVSRSDIFVLAKSAGNLVSITV,-0.314
14,HMTNIELYQRLLNLGFTPAQAKILLVQYDETRLTDNLNYVDFKKQQGNIENLPAYTTTIIKKDVRL,0.0954
15,HMDEQVETLKNLISELPKEQLEVLVMRHYEDLSFKEISEKTGVSINTALGRMRYALINIRKLMKENN,-0.488
16,HMFDLSQRQEQIIEIVRKHGPITGEKIADLLYVTRAALRPDLAILTMSGYLEAKPRVGYTYK,-0.0725
17,HMSRVTVDVNPDVLQWAIDKKGKGDIKNKFPKIDEWLNGISKPTIHQLENFAKYVSVPFGYLLLSKPPVE,0.00473
18,HMSKLSLREIVKKFEEQIIQLHKRGLNHSEISREIVTKNSIDLGDSHIDSLRRAISVHLQTP,-0.201
19,HMSDILALMPGTIKQILVAPGDSVKRGQTVIIMESMKMELTIAAHRDGVVKRIPVEQGGQVEKGMRLLELE,-0.263
20,HMANYHDIAADLRSKINHGFYEEEKKLPKQSELAADYQTSRVTIQKALNILQMEGIIYGKKGTGTFIRDSY,0.0346
21,HMASMEDILAEAKTKFQEGDLFKSVNEGIQGTHKLTLPLRIKESRIVDASGAAVYREGIWATVDK,0.185
22,HMETNFTGTRIATARKAKNMSQAQLAQQLFISPQAVGKWERGESIPDIVTVVKLADVLGVDLNYFSE,-0.403
23,HMRMLSEGAQRMLRGLAVLEEASADRLLELHQGDYPGFVRSLFALESAGLFQRNGSGTWIRR,-0.996
24,HMQEIKPEPISDGRVWKEGMWATTPLGIEGQLLSDPDEKGMVQLGYGNMRININIQDLDPSR,-0.207
25,HMTNYGTVRPGARGQAVTALQQALIRHGYKLTADGIYGRATRQAVRAFQQKHKLKVDGIVGSKTWALLLAD,-0.0192
26,HMVYLPSSIKNIPTKYGEMMVANFKMDELQANSKNGWVSMVISERREPSEKGATHYAYVNTY,0.106
27,HMQKFINQEHEKAYNLMLEKDYQQALKIFDDLIYLFPNEANLLSDRGVIFIHLNKKEAALQDFDQAVF,-1.49
